The target of this assay is Bcl-xL, Q07817. Kind of assay: peptide SPOT array, c-Myc-tagged receptor at 1 uM or 100 nM, anti-c-Myc-Cy3.
Bcl-xL, Q07817, sequence (Q07817 1-209): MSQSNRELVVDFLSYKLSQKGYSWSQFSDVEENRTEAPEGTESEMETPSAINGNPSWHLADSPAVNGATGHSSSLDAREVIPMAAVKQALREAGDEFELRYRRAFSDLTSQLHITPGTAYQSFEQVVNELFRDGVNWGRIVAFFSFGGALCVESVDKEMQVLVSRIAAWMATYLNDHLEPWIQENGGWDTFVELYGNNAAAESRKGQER

QFEIEKSCELLFQMAESVDYDYDVQD [DHX40] showed an SPOT signal as a fraction of Bim BH3's signal on the same receptor and array of 0.02.

Molecule SDNLFKWVGTIHGAAGTVYEDLRYKL [UBE2C] came in with an SPOT signal as a fraction of Bim BH3's signal on the same receptor and array of 0.03.

RQAFYLHTTKLTRILRRLCREILRPW [MTA1] showed an SPOT signal as a fraction of Bim BH3's signal on the same receptor and array of 0.85.

For the molecule RVIPHDGAEDLWIQAQELVRNMKENL [PLB1], the SPOT signal as a fraction of Bim BH3's signal on the same receptor and array was 0.03.

KKRADSVANKLGSFGKTLGSKLKKNM [OTUD7B] gave an SPOT signal as a fraction of Bim BH3's signal on the same receptor and array of 0.58.

In the case of NRKGEKNGKGDRHFSMKVCEKVQRKG [TFDP1], the SPOT signal as a fraction of Bim BH3's signal on the same receptor and array is 0.47.

In the case of GTKSQLLAKRLLDLSNEGFTNWEFMT [PCSK6], the SPOT signal as a fraction of Bim BH3's signal on the same receptor and array was found to be 0.03.

For DLQIYQPGRRLQTVSKESASRVEEEE [SMG6], the SPOT signal as a fraction of Bim BH3's signal on the same receptor and array was determined as 0.03.

Turning to KSRLVQQSKALKELLDELQERCQRPA [TRIM58], the SPOT signal as a fraction of Bim BH3's signal on the same receptor and array is 0.11.

EVRSSQFARKDWRSSRRISQVSSGET [NBEAL2]: the SPOT signal as a fraction of Bim BH3's signal on the same receptor and array was 0.92.

As for TDENKKVGLALKDLLKQYSDRLECCE [NUB1], the SPOT signal as a fraction of Bim BH3's signal on the same receptor and array was found to be 0.03.

In the case of YGRLRPRARSLSKASTAINWLTKKFL [MYO15A], the SPOT signal as a fraction of Bim BH3's signal on the same receptor and array stood at 1.39.

The molecule PKELEGYIQKLQNAAERLATENRKLR [DYNC2H1] yielded an SPOT signal as a fraction of Bim BH3's signal on the same receptor and array of 0.09.

In the case of EVLAGPLAQRLSHILEDVGRLVKKSR [ARHGAP4], the SPOT signal as a fraction of Bim BH3's signal on the same receptor and array worked out at 0.19.

LREVRESIRFLRQVLRDWVQRRREAL [CYP46A1]: the SPOT signal as a fraction of Bim BH3's signal on the same receptor and array turned out to be 0.44.

GSGPSKTSRVLQNVAFSVQKEVEKNL [BCL2A1] returned an SPOT signal as a fraction of Bim BH3's signal on the same receptor and array of 0.06.

The molecule PEDLQDVGWFLHKLLQQILKKEKEKK [TLR5] gave an SPOT signal as a fraction of Bim BH3's signal on the same receptor and array of 0.09.

The molecule FERVEQMCIQIKEVLDRVNYIKRSLQ [TRPM7] registered an SPOT signal as a fraction of Bim BH3's signal on the same receptor and array of 0.18.

In turn, FNIPREAAERLRILAQSNNQQLRDLG [NCOA6] displayed an SPOT signal as a fraction of Bim BH3's signal on the same receptor and array of 0.08.

In turn, LANVTEDAKRLIAVADSVLTKVVGDL [RNF213] had an SPOT signal as a fraction of Bim BH3's signal on the same receptor and array of 0.03.
